Source: patent US8962263B2, “Methods and compositions for detecting the activation state of multiple proteins in single cells” (The Board of Trustees of the Leland Stanford Junior …, priority 2001, dated 2015)
Where two headings read alike, the source gives them in different places.

What was measured:
Pyk2 = assay: sICAM-2 induced Pyk2 phosphorylation (phospho-tyrosine based ELISA, chemical genetic approach); format: cell-based; settings: phospho-tyrosine based ELISA
Outline: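 Chemical genetic approach: sICAM-2-stimulated cells treated with selected kinase/pathway inhibitors (PKC inhibitors BIM I, BIM II, staurosporine; tyrphostin A9; neomycin; piceatannol); phosphorylation status of Pyk2 and Syk measured by phospho-tyrosine ELISA.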

ezrin = assay: phosphotyrosine-protein based elisa for ezrin tyrosine phosphorylation upon ICAM-2 ligation; format: cell-based, human; settings: Jurkat cells
human naïve T-cells = assay: T cell activation by CD25 and CD69 markers in human naïve T cells; format: cell-based; settings: combined with CD3/CD28 stimulation
Procedure: A) Intracellular detection of IL-2, of titration of CD3/CD28, vs. LFA-1, stimulus or CD3, vs. CD28, stimulus for 6, hours. Median Fluorescent intensity is plotted as a visual array. B) Bivariate analysis of CD69, and CD25 expression in unstimulated, CD3/CD28/LFA-1, (0.001, μg/ml, 1:1:1) stimulated, and CD3/CD28, (10 μg/ml) stimulated CD4, T cells. C) Bivariate plot of CD69, expression and intracellular detection of IL-2, post 12, hour stimulation of unstimulated, CD3/CD28, and CD3/CD28/LFA-1, stimulation.
Intracellular and extracellular staining was performed as described for phospho-staining (Perez and Nolan, 2002). […] Four or less color flow cytometry data acquisition was collected on a FACSCalibur machine (Beckton Dickinson, San Jose Calif.) using CELLQuest software, analyzed and presented using FlowJo software (Tree Star, San Carlos, California). […] Data were collected by FACS-Desk software and compensated, analyzed, and presented using FlowJo software. […] Ratios of intracellular flow cytometric measurements were calculated from the following equation where MFI equals mean fluorescent intensity: Log [(MFIexperimental−MFIisotype mAb)/(MFIcontrol−MFlisotype mAb)].

p44/42 MAPK = assay: phospho-p44/42 MAPK immunoblot and p44/42 MAPK kinase assay in soluble ICAM-2 treated Jurkat cells; format: cell-based, human
LFA-1 = LFA-1 (Homo sapiens, UniProt P20701); settings: cited from earlier work
Chain of LFA-1 (P20701 26-1170): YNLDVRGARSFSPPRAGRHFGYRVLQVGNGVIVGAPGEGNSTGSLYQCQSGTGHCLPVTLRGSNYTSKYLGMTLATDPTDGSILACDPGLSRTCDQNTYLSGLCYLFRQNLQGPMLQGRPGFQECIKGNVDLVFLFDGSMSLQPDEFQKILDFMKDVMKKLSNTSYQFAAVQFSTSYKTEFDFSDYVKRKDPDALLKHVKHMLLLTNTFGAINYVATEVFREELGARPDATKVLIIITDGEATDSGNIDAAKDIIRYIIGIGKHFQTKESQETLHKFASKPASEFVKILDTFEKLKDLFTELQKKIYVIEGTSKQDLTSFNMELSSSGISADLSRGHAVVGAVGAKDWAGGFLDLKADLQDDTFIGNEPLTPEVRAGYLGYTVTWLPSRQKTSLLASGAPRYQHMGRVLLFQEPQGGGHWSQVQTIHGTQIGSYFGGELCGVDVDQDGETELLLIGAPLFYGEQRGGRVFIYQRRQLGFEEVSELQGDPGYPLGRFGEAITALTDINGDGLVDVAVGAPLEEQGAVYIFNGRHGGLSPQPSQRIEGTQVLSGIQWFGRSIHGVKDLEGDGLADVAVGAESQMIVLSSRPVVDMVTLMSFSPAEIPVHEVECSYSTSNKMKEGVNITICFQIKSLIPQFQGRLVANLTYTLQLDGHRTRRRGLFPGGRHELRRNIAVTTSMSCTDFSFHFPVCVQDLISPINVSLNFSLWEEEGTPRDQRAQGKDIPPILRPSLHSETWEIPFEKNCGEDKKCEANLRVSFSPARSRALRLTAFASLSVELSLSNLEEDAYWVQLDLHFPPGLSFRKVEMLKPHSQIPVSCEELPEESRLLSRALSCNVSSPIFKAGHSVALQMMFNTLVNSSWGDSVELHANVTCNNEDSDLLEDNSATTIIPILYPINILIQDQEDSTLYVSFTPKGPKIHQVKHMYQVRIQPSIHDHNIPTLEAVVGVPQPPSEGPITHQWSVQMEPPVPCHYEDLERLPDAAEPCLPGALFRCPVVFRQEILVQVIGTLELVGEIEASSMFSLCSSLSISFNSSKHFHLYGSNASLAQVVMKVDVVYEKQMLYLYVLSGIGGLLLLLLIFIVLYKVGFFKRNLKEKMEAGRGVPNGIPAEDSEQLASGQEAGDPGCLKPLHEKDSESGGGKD
Chain of LFA-1 (P05107 23-769 partner): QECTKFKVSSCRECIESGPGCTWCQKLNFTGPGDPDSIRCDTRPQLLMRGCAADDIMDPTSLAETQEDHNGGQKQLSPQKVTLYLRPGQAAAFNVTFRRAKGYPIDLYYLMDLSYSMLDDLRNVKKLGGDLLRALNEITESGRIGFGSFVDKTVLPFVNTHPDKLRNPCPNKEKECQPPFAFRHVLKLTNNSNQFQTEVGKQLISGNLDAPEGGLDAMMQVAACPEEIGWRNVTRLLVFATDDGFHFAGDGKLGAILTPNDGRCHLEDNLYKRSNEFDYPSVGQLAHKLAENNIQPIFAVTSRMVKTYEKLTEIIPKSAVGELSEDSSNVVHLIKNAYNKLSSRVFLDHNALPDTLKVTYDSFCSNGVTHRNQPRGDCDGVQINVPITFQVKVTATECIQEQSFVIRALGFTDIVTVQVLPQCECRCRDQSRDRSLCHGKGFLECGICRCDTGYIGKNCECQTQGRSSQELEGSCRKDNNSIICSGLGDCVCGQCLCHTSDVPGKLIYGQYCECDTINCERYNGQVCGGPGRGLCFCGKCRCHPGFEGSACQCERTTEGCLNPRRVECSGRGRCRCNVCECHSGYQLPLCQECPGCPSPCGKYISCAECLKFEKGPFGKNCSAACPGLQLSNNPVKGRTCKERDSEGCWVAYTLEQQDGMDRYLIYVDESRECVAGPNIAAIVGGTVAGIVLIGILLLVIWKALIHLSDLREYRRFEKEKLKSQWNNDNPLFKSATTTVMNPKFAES

Molecule	sICAM-2 induced Pyk2 phosphorylation (Pyk2)	tyrosine phosphorylation of ezrin (ezrin)	lowering of the CD3/CD28 stimulus threshold (human naïve T-cells)	p44/42 MAPK phosphorylation and activity on ICAM-2 treatment (p44/42 MAPK)	p44/42 MAPK phosphorylation and activity on ICAM-2 treatment (p44/42 MAPK; listed as soluble ICAM-2)	concentration inducing LFA-1 mediated adhesion (LFA-1; bulk cellular adhesion assay) [µM]	fold lower ICAM-2 soluble protein concentration compared with P1 (LFA-1) [fold]
CN(C)CCCn1cc(C2=C(c3c[nH]c4ccccc34)C(=O)NC2=O)c2ccccc21 [bisindolymaleimide I]	affected	minor affects	–	–	–	–	–
ICAM-2: biochemically purified soluble human ICAM-2 protein from retrovirally transduced NIH3T3 cells; ICAM-2-FC fusion also used (protein, UniProt P13598 25-223, looked up, extracellular domain, biochemically purified soluble human ICAM-2 protein from retrovirally transduced NIH3T3 cells; ICAM-2-FC fusion also used) extracellular domain: KVFEVHVRPKKLAVEPKGSLEVNCSTTCNQPEVGGLETSLDKILLDEQAQWKHYLVSNISHDTVLQCHFTCSGKQESMNSNVSVYQPPRQVILTLQPTLVAVGKSFTIECRVPTVEPLDSLTLFLFRGNETLHYETFGKAAPAPQEATATFNSTADREDGHRNFSCLAVLDLMSRGGNIFHKHSAPKMLEIYEPVSDSQ	–	–	10,000 fold	induced both p44/42 MAPK phosphorylation and activation	induced p44/42, MAPK phosphorylation and activity	1.3	48
